Source: patent publication US20110076298A1, “Soluble stabilized trimeric hiv env proteins and uses thereof” (priority 2006, published 2011)

Assays:
[1] = Tween 20 aggregate conversion/collapse experiments, BN-PAGE; assay type: physicochemical; details: 0° C., room temperature, 37° C.
Protocol: FIGS. 6A-6D: Tween® 20 conversion experiments. (A) Dose response: Purified KNH1144 SOSIP R6 gp140 trimer was incubated with 0 (no detergent control), or 0.1, 0.05, 0.01, 0.001, or 0.0001% Tween® 20 and analyzed by BN-PAGE and Coomassie G-250 stain. Arrows point to HMW aggregate and trimer species. M stands for the 669 k thyroglobulin and 440 k ferritin molecular weight protein standards. (B) Time course: Purified KNH1144 SOSIP R6 gp140 trimer was incubated with Tween® 20 for 5 min (left panel) or 10 min (right panel). Trimer was either untreated (−lane) or Tween® 20 treated (+lane). Arrows indicate trimer and HMW aggregate bands. […]
Tween® 20 Dose effect: 1 ug of purified KNH1144 SOSIP R6 trimer was incubated with varying concentrations of Tween® 20 (polyoxyethylene sorbitan monolaurate) ranging from 0 to 0.0001% (v/v) and incubated for 1 hour at room temperature. Following incubation, samples were analyzed by BN-PAGE as described above. […]
Temperature dependance on Tween® 20 effect: To determine if temperature affected the ability of Tween® 20 to recover trimers from aggregates (i.e., collapse aggregate into trimer), 1 ug of purified KNH1144 SOSIP R6 trimer was incubated with Tween® 20 to a final concentration of 0.05% (v/v) at 0° C. […] Following the incubation, samples were analyzed by BN-PAGE and Coomassie staining. […]

[2] = system: 2G12, b6, b12, CD4-IgG2, HIVIg; assay: Lectin ELISA antigenicity, untreated vs Tween 20 treated; assay type: binding; details: 0.05% Tween 20, lectin ELISA
Source text: FIG. 8: Effect of Tween® 20 treatment on KNH1144 SOSIP R6 HMW aggregate antigenicity. Lectin ELISA of untreated and Tween® 20 treated KNH1144 SOSIP R6 HMW aggregate: Untreated or Tween® 20-treated HMW aggregate were bound to GNA lectin coated ELISA plates and probed with 2G12, b6, b12, CD4-IgG2, and HIVIg. The panels represent their respective binding curves. Antibody affinity to the untreated HMW aggregate is represented by the curve having diamond lines. Affinity to the Tween® 20 treated HMW aggregate is represented by curve having square lines. The Y-axis represents the colorimetric signal at OD492 and the X-axis represents antibody concentration in [ug/ml]. Lectin ELISA of untreated and Tween® 20-treated KNH1144 SOSIP R6 gp140 trimer: Untreated or Tween® 20 treated trimer (containing 10-15% HMW aggregate) were bound to GNA lectin coated ELISA plates and probed with 2G12, b6, b12, and CD4-IgG2. The panels represent their respective binding curves. Antibody affinity to the untreated trimer is represented by the curve having diamond lines. Affinity to the Tween® 20 treated trimer is represented by the curve having square lines. The Y-axis represents the colorimetric signal at OD492 and the X-axis represents antibody concentration in [ug/ml].
ELISA plates were coated overnight at 4° C. with lentil lectin powder from Lens culinaris (L9267, Sigma) at 10 ug/ml concentration. […]

For “KNH1144 SOSIP R6 HMW aggregate: high molecular weight aggregate species of KNH1144 SOSIP R6 gp140, slower migrating on BN-PAGE”, the “temperature dependence of the Tween 20 effect” value [1] was “temperature independent” and the “antibody binding, Tween 20 treated vs untreated” value [2] was “increased binding”.
